Results: the supplement of paper PMC10724198
± gives the standard deviation of the averaged measurements.

System: Saccharomyces cerevisiae
Assay: protein stability index of tFT-peptide fusion (C-terminal peptide) (PSI (0-1 scale)); higher = more stable (slower turnover)
Conditions: temperature: 30 C
Experimental: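 MPS profiling in S. cerevisiae of the yeast C-terminome library: the last 12 aa of each annotated ORF are fused to the C-terminus of a sfGFP-mCherry timer, after a GGGS linker. Cells are FACS-sorted into 8 mCherry/sfGFP bins and deep-sequenced. PSI runs from 0 (unstable) to 1 (stable); wild type and das1Δ backgrounds, two technical replicates each.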

[1] = genetic background: das1 deletion

| Sequence | protein stability index [1] | protein stability index (genetic background: wild type) |
| --- | --- | --- |
| IARSRRAFLSKL [MRP7 C-terminal 12 aa] | 0.843 ± 0.018 | 0.846 ± 0.089 |
| AALESEDEDDEA [CAF20 C-terminal 12 aa] | 0.685 ± 0.041 | 0.6667 ± 0.0033 |
| SCQRILQELEKP [CAK1 C-terminal 12 aa] | 0.689 ± 0.0094 | 0.705 ± 0.055 |
| FELAKVSFDNKR [YKR104W C-terminal 12 aa] | 0.736 ± 0.031 | 0.707 ± 0.095 |
| SIGLTNLFLYRV [YDR010C C-terminal 12 aa] | 0.715 ± 0.0083 | 0.681 ± 0.01 |
| IGEWTISYTSLI [IPA1 C-terminal 12 aa] | 0.66 ± 0.015 | 0.669 ± 0.041 |
| PREGRLDKTPTY [KAR9 C-terminal 12 aa] | 0.706 ± 0.008 | 0.704 ± 0.036 |
| EAEQTKAPKIQI [TMC1 C-terminal 12 aa] | 0.6728 ± 0.0043 | 0.701 ± 0.012 |
| WKEVLKFPKSFN [HXT15 C-terminal 12 aa] | 0.724 ± 0.0077 | 0.714 ± 0.031 |
| VPPRSASASSQR [SPC97 C-terminal 12 aa] | 0.689 ± 0.018 | 0.684 ± 0.015 |
| KYLNDEQVKLNV [ADE13 C-terminal 12 aa] | 0.72 ± 0.026 | 0.68 ± 0.035 |
| HVDKRTKIDQEA [ISW2 C-terminal 12 aa] | 0.702 ± 0.056 | 0.681 ± 0.016 |
| FALVLAYMRLLT [FMP32 C-terminal 12 aa] | 0.4219 ± 0.0012 | 0.237 ± 0.012 |
| VNQKQPPPQSYV [YEL067C C-terminal 12 aa] | 0.7165 ± 0.00072 | 0.7048 ± 0.00045 |
| TVETLLKLFTKS [SLD7 C-terminal 12 aa] | 0.6879 ± 0.0025 | 0.69379 ± 0.00044 |
| YNPGLSMDFLTA [BCD1 C-terminal 12 aa] | 0.6899 ± 0.0018 | 0.714 ± 0.014 |
| TSSFTEAVIKRL [IDH2 C-terminal 12 aa] | 0.696 ± 0.011 | 0.6628 ± 0.0025 |
| RKNGYDIMTLHE [CLB1 C-terminal 12 aa] | 0.719 ± 0.045 | 0.666 ± 0.027 |
| IMTSEIVTNALR [YEL030C-A C-terminal 12 aa] | 0.70774 ± 0.00013 | 0.705 ± 0.022 |
| ISNDMQVPPQIS [CKS1 C-terminal 12 aa] | 0.722 ± 0.0098 | 0.688 ± 0.011 |
| EEFNKQLKDIEA [YOR289W C-terminal 12 aa] | 0.69 ± 0.026 | 0.661 ± 0.017 |

| Sequence | protein stability index [1] | protein stability index (genetic background: wild type) |
| --- | --- | --- |
| VFRIVARGYVGW [BBC1 C-terminal 12 aa] | 0.701 ± 0.04 | 0.691 ± 0.046 |
| TMVERRVSFTAQ [YER119C-A C-terminal 12 aa] | 0.73 ± 0.031 | 0.711 ± 0.022 |
| FDELFISTEVEL [TCA17 C-terminal 12 aa] | 0.718 ± 0.018 | 0.6851 ± 0.0011 |
| KQAIYTRATASE [RPS25A C-terminal 12 aa] | 0.693 ± 0.012 | 0.687 ± 0.0034 |
| YVPPPTYTEMAS [ART10 C-terminal 12 aa] | 0.7074 ± 0.0038 | 0.66 ± 0.011 |
| ISPSKSITMVAE [YDR526C C-terminal 12 aa] | 0.689 ± 0.011 | 0.6363 ± 0.0024 |
| SRVYAYYLTHEK [NNT1 C-terminal 12 aa] | 0.666 ± 0.007 | 0.67 ± 0.018 |
| TFHTVGDRYEMA [YPR127W C-terminal 12 aa] | 0.7019 ± 0.006 | 0.69654 ± 0.00054 |
| EKLISLSQSMEN [ATP11 C-terminal 12 aa] | 0.718 ± 0.0096 | 0.785 ± 0.11 |
| TAREKKNEMFSF [YCL023C C-terminal 12 aa] | 0.69596 ± 0.00065 | 0.711 ± 0.06 |
| NVSDLFQWQNAK [CAT8 C-terminal 12 aa] | 0.744 ± 0.017 | 0.683 ± 0.047 |
| RRQSPPGYYVIR [YLR311C C-terminal 12 aa] | 0.747 ± 0.0064 | 0.708 ± 0.027 |
| TTRETPLPPIPA [TYW1 C-terminal 12 aa] | 0.609 ± 0.012 | 0.642 ± 0.015 |
| RQRQLKSPQNVL [TYW3 C-terminal 12 aa] | 0.714 ± 0.017 | 0.696 ± 0.046 |
| NTSLLFKKWEGS [CEM1 C-terminal 12 aa] | 0.707 ± 0.01 | 0.702 ± 0.04 |
| SSSYNYNVHKLA [YDR278C C-terminal 12 aa] | 0.6925 ± 0.0039 | 0.134 ± 0.013 |
| RRLKIQLCCISK [YHR180C-B C-terminal 12 aa] | 0.658 ± 0.019 | 0.6544 ± 0.004 |
| VWTLELSVIGVQ [WHI2 C-terminal 12 aa] | 0.542 ± 0.011 | 0.572 ± 0.011 |
| STDEKTSENETL [YPR071W C-terminal 12 aa] | 0.6746 ± 0.0056 | 0.656 ± 0.024 |
| GIGFFAVCFERD [RCM1 C-terminal 12 aa] | 0.6906 ± 0.0028 | 0.664 ± 0.012 |
| AERAGNAGVKAE [SND3 C-terminal 12 aa] | 0.654 ± 0.0096 | 0.685 ± 0.017 |

| Sequence | protein stability index [1] | protein stability index (genetic background: wild type) |
| --- | --- | --- |
| VSKLNGFSFTDI [ASE1 C-terminal 12 aa] | 0.669 ± 0.0088 | 0.674 ± 0.016 |
| VPQEDDRLHKLK [AIM3 C-terminal 12 aa] | 0.701 ± 0.016 | 0.765 ± 0.039 |
| TASTSNSRNQTM [SPO71 C-terminal 12 aa] | 0.701 ± 0.03 | 0.687 ± 0.038 |
| VPLESTKRQPLH [YBR053C C-terminal 12 aa] | 0.719 ± 0.0097 | 0.704 ± 0.026 |
| EDGVGDPREEDE [RAD51 C-terminal 12 aa] | 0.693 ± 0.023 | 0.6258 ± 0.0013 |
| EIVRNFSLFNMV [ARP3 C-terminal 12 aa] | 0.697 ± 0.031 | 0.6866 ± 0.0035 |
| WPVTKPEDTKDN [ZWF1 C-terminal 12 aa] | 0.699 ± 0.013 | 0.67 ± 0.018 |
| YNTTSITNSTSW [SRL1 C-terminal 12 aa] | 0.711 ± 0.016 | 0.722 ± 0.09 |
| EKVTNTLSSLKF [LTV1 C-terminal 12 aa] | 0.694 ± 0.0074 | 0.669 ± 0.017 |
| RNYQKKGNKGCI [YCL076W C-terminal 12 aa] | 0.687 ± 0.024 | 0.679 ± 0.034 |
| SPEIDDSSLACH [CTR2 C-terminal 12 aa] | 0.707 ± 0.0085 | 0.6821 ± 0.0044 |
| YLNCTEREALRP [AEP1 C-terminal 12 aa] | 0.6794 ± 0.0038 | 0.752 ± 0.076 |
| SQMTKKRKTKKE [APN1 C-terminal 12 aa] | 0.72 ± 0.015 | 0.786 ± 0.064 |
| AVGETRLKKSKK [PRP21 C-terminal 12 aa] | 0.689 ± 0.016 | 0.779 ± 0.12 |
| LQHYRTHLKKGQ [NRG1 C-terminal 12 aa] | 0.7007 ± 0.0015 | 0.6784 ± 0.0039 |
| SRIKNACLHRMN [RRN7 C-terminal 12 aa] | 0.6966 ± 0.0047 | 0.681 ± 0.035 |
| INDKNTEYTLKE [MRX9 C-terminal 12 aa] | 0.703 ± 0.019 | 0.732 ± 0.017 |
| HAEFHARNLGLI [YJL068C C-terminal 12 aa] | 0.7036 ± 0.0021 | 0.686 ± 0.023 |
| NYTLTVENKNKV [SPC3 C-terminal 12 aa] | 0.693 ± 0.051 | 0.734 ± 0.03 |
